The target of assay [1] is T1, human apical domain of CD71 (human, UniProt P02786 189-383, limits assumed).
T1 construct: domain: apical domain
The experiment in a line: primary ELISA; also: test concentration or dose not given here; signal over HSA control. On the technique in general: An ELISA detects its analyte on a solid surface through an enzyme-linked reagent.

The target of assay [2] is T2, human CD71 extracellular domain (human, UniProt P02786 89-760).
T2 construct: also called hCD71; CD71-ECD
T2 sequence (P02786 89-760): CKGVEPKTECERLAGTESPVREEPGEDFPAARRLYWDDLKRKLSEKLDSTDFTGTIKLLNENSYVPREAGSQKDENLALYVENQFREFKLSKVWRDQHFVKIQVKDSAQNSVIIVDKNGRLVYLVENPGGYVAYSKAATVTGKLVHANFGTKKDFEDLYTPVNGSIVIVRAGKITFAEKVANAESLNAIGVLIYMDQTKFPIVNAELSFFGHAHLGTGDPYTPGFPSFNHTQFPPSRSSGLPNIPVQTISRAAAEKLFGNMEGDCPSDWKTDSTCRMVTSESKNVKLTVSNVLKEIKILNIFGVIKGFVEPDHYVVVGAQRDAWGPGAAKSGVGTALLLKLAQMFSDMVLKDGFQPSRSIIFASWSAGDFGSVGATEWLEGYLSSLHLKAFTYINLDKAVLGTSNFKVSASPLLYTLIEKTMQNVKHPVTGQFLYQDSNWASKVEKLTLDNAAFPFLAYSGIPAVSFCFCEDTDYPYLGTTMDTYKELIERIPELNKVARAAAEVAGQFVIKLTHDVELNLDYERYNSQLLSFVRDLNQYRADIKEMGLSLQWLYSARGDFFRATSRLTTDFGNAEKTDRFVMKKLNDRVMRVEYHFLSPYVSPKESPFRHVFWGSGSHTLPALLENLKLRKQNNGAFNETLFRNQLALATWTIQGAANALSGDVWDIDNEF
The experiment in a line: primary ELISA; signal over HSA control. Also: test concentration or dose not given here.

The target in assay [3] is T1, human apical domain of CD71. Put plainly: primary ELISA. Also: test concentration or dose not given here.
Assay [4] concerns the target T2, human CD71 extracellular domain. Put plainly: primary ELISA. Also: test concentration or dose not given here.

T1 sequence (P02786 189-383 limits assumed): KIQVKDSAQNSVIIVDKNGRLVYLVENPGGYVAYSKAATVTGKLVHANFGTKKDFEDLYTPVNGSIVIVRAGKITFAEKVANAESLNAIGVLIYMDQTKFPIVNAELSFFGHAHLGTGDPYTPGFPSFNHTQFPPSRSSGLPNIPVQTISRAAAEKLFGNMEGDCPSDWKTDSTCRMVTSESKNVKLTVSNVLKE

B1: CD71-binding FN3 domain SEQ ID NO 380 (designed binder)
chain: MLPAPKNLVVSRVTEDSARLSWTAPDAAFDSFFIGYLEPQPPGEAIGLFVPGSERSYDLTGLKPGTEYNVTIQGVKGGFPSMPLSAIFTT
In the case of B1, the “Apical domain:HSA” value in assay [1] came to 25 ratio. The “hCD71:HSA” value in assay [2] was 21 ratio. Also, the RLU in assay [3] was 6.5e+06 RLU; in assay [4], 5.32e+06 RLU.

B2: CD71-binding FN3 domain SEQ ID NO 357 (designed binder)
chain: MLPAPKNLVVSRVTEDSARLSWTAPDAAFDSFFIGYLEPQPPGEAIGLFVPGSERSYDLTGLKPGTEYNVTIQGVKGGFPSDPLVAYFTT
As to B2, the “Apical domain:HSA” value in assay [1] is 18 ratio. Also, the “hCD71:HSA” value in assay [2] amounted to 16 ratio. Moreover, the values for the RLU in assay [3] and in assay [4] were 6.34e+06 RLU and 5.62e+06 RLU, respectively.

B3: CD71-binding FN3 domain SEQ ID NO 375 (designed binder)
chain: MLPAPKNLVVSRVTEDSARLSWTAPDAAFDSFFIGYLEPQPPGEAIDLTVPGSERSYDLTGLKPGTEYNVTIQGVKGGFPSMPLSAIFTT
For the molecule B3, the “Apical domain:HSA” value in assay [1] came out at 139 ratio. The “hCD71:HSA” value in assay [2] came out at 187 ratio. Besides, the RLU in assay [3] turned out to be 2.09e+06 RLU; in assay [4], 2.82e+06 RLU.

B4: CD71-binding FN3 domain SEQ ID NO 346 (designed binder)
chain: MLPAPKNLVVSRVTEDSARLSWTAPDAAFDSFFIGYLEPQPPGEAISLFVPGSERSYDLTGLKPGTEYNVTIQGVKGGFPSDPLNATFNT
As for B4, the “Apical domain:HSA” value in assay [1] is 83 ratio. Moreover, the “hCD71:HSA” value in assay [2] worked out at 61 ratio. Also, the RLU in assay [3] worked out at 6.82e+06 RLU; in assay [4], 5e+06 RLU.

B5: CD71-binding FN3 domain SEQ ID NO 378 (designed binder)
chain: MLPAPKNLVVSRVTEDSARLSWTAPDAAFDSFFIGYLEPQPPGEAIDLWVPGSERSYDLTGLKPGTEYNVTIQGVKGGFPSTPLIATVTT
For the molecule B5, the “Apical domain:HSA” value in assay [1] turned out to be 76 ratio. In addition, the “hCD71:HSA” value in assay [2] was found to be 76 ratio. Besides, the RLU in assay [3] and in assay [4] was 6.12e+06 RLU in each case.

B6: CD71-binding FN3 domain SEQ ID NO 353 (designed binder)
chain: MLPAPKNLVVSRVTEDSARLSWTAPDAAFDSFFIGYLEPQPPGEAIGLFVPGSERSYDLTGLKPGTEYNVTIQGVKGGFPSNPLEARFTT
With B6, the “Apical domain:HSA” value in assay [1] is 80 ratio. Further, the “hCD71:HSA” value in assay [2] amounted to 53 ratio. For the same molecule, the RLU was found to be 6.87e+06 RLU in assay [3] and 4.54e+06 RLU in assay [4].

B7: CD71-binding FN3 domain SEQ ID NO 351 (designed binder)
chain: MLPAPKNLVVSRVTEDSARLSWTAPDAAFDSFFIGYLEPQPPGEAITLAVPGSERSYDLTGLKPGTEYNVTIQGVKGGFPSNPLLAAFTT
Turning to B7, in assay [1], the “Apical domain:HSA” value stood at 345 ratio. In addition, the “hCD71:HSA” value in assay [2] stood at 322 ratio. For the same molecule, the RLU in assay [3] was determined as 2.87e+06 RLU; in assay [4], 2.67e+06 RLU.

B8: CD71-binding FN3 domain SEQ ID NO 356 (designed binder)
chain: MLPAPKNLVVSRITEDSARLSWTAPDAAFDSFFIGYLEPQPPGEAITLLVPASERSYDLTGLKPGTEYNVTIQGVKGGFPSHPLQAQFTT
Take B8: in assay [1], the “Apical domain:HSA” value amounted to 337 ratio. Moreover, the “hCD71:HSA” value in assay [2] amounted to 207 ratio. Further, the RLU in assay [3] was 6.37e+06 RLU; in assay [4], 3.92e+06 RLU.

B9: CD71-binding FN3 domain SEQ ID NO 369 (designed binder)
chain: MLPAPKNLVVSRVTEDSARLSWTAPDAAFDSFFIGYLEPQPPGEAIVLWVPGSERSYDLTGLKPGTEYNVTIQGVKGGFPSHPLVAKSTT
In the case of B9, the “Apical domain:HSA” value in assay [1] came out at 165 ratio. In addition, the “hCD71:HSA” value in assay [2] came to 172 ratio. Further, the RLU is 3.66e+06 RLU in assay [3] and 3.82e+06 RLU in assay [4].

B10: CD71-binding FN3 domain SEQ ID NO 360 (designed binder)
chain: MLPAPKNLVVSRVTEDSARLSWTAPDAAFDSFFIGYLEPQPPGEAISLYVPGSERSYDLTGLKPGTEYNVTIQGVKGGFPSHPLLAVFTT
For the molecule B10, the “Apical domain:HSA” value in assay [1] stood at 144 ratio. Further, in assay [2], the “hCD71:HSA” value turned out to be 155 ratio. The RLU was determined as 5.37e+06 RLU in assay [3] and 5.78e+06 RLU in assay [4].

B11: CD71-binding FN3 domain SEQ ID NO 376 (designed binder)
chain: MLPAPKNLVVSRVTEDSARLSWTAPDAAFDSFFIGYLEPQPPGEAIALLVPGSERSYDLTGLKPGTEYNVTIQGVKGGFPSNPLEAKFTT
Regarding B11, the “Apical domain:HSA” value in assay [1] worked out at 167 ratio. In assay [2], the “hCD71:HSA” value was 153 ratio. For the same molecule, the RLU turned out to be 6.47e+06 RLU in assay [3] and 5.96e+06 RLU in assay [4].

B12: CD71-binding FN3 domain SEQ ID NO 373 (designed binder)
chain: MLPAPKNLVVSRVTEDSARLSWTAPDAAFDSFFIGYLEPQPPGEAISLFVPGSERSYDLTGLKPGTEYNVTIQGVKGGFPSDPLVASFTT
For B12, in assay [1], the “Apical domain:HSA” value came out at 115 ratio. In addition, in assay [2], the “hCD71:HSA” value was determined as 98 ratio. For the same molecule, the RLU worked out at 5.73e+06 RLU in assay [3] and 4.86e+06 RLU in assay [4].

B13: CD71-binding FN3 domain SEQ ID NO 368 (designed binder)
chain: MLPAPKNLVVSRVTEDSARLSWTAPDAAFDSFFIGYLEPQPPGEAITLTVPGSERSYDLTGLKPGTEYNVTIQGVKGGFPSGPLIASFTT
B13: in assay [1], the “Apical domain:HSA” value turned out to be 246 ratio. Further, the “hCD71:HSA” value in assay [2] turned out to be 218 ratio. In addition, the RLU in assay [3] was found to be 6.23e+06 RLU; in assay [4], 5.53e+06 RLU.

B14: CD71-binding FN3 domain SEQ ID NO 363 (designed binder)
chain: MLPAPKNLVVSRVTEDSARLSWTAPDAAFDSFFIGYLEPQPPGEAIDLWVPGSERSYDLTGLKPGTEYNVTIQGVKGGFPSLPLSAIFTT
On to B14, for which the “Apical domain:HSA” value in assay [1] came out at 320 ratio. The “hCD71:HSA” value in assay [2] was 273 ratio. Further, the RLU in assay [3] was 4.91e+06 RLU; in assay [4] it was 4.18e+06 RLU.

B15: CD71-binding FN3 domain SEQ ID NO 372 (designed binder)
chain: MLPAPKNLVVSRVTEDSARLSWTAPDAAFDSFFIGYLEPQPPGEAINLLVPGSERSYDLTGLKPGTEYNVTIQGVKGGFPSLPLLAEFTT
Regarding B15, the “Apical domain:HSA” value in assay [1] was determined as 205 ratio. For the same molecule, the “hCD71:HSA” value in assay [2] came out at 124 ratio. Further, the values for the RLU in assay [3] and in assay [4] were 4.63e+06 RLU and 2.8e+06 RLU, respectively.

B16: CD71-binding FN3 domain SEQ ID NO 361 (designed binder)
chain: MLPAPKNLVVSRVTEDSARLSWTAPDAAFDSFFIGYLEPQPPGEAIQLFVPGSERSYDLTGLKPGTEYNVTIQGVKGGFPSIPLSALFTT
Regarding B16, the “Apical domain:HSA” value in assay [1] worked out at 342 ratio. The “hCD71:HSA” value in assay [2] was 210 ratio. Besides, the RLU in assay [3] was determined as 5.01e+06 RLU; in assay [4], 3.08e+06 RLU.

B17: CD71-binding FN3 domain SEQ ID NO 377 (designed binder)
chain: MLPAPKNLVVSRVTEDSARLSWTAPDAAFDSFFIGYLEPQPPGEAIQLWVPGSERSYDLTGLKPGTEYNVTIQGVKGGFPSTPLQALFTT
With B17, the “Apical domain:HSA” value in assay [1] came out at 274 ratio. For the same molecule, in assay [2], the “hCD71:HSA” value worked out at 125 ratio. In addition, the RLU in assay [3] turned out to be 3.43e+06 RLU; in assay [4], 1.57e+06 RLU.

B18: CD71-binding FN3 domain SEQ ID NO 347 (designed binder)
chain: MLPAPKNLVVSRVTEDSARLSWTAPDAAFDSFFIGYLEPQPPGEAIGLFVPGSERSYDLTGLKPGTEYNVTIQGVKGGFPSEPLKAAFTT
On to B18, for which, in assay [1], the “Apical domain:HSA” value was 168 ratio. In addition, the “hCD71:HSA” value in assay [2] was found to be 116 ratio. The RLU in assay [3] worked out at 5.95e+06 RLU; in assay [4] it was 4.1e+06 RLU.

B19: CD71-binding FN3 domain SEQ ID NO 350 (designed binder)
chain: MLPAPKNLVVSRVTEDSARLSWTAPDAAFDSFFIGYLEPQPPGEAISLFVPGSERSYDLTGLKPGTEYNVTIQGVKGGFPSMPLVAQFTT
In the case of B19, in assay [1], the “Apical domain:HSA” value was 143 ratio. Besides, the “hCD71:HSA” value in assay [2] worked out at 127 ratio. The figures for the RLU in assay [3] and in assay [4] were 6.7e+06 RLU and 5.96e+06 RLU, respectively.

B20: CD71-binding FN3 domain SEQ ID NO 349 (designed binder)
chain: MLPAPKNLVVSRVTEDSARLSWTAPDAAFDSFFIGYLEPQPPGEAIELYVPGSERSYDLTGLKPGTEYNVTIQGVKGGFPSEPLIAHFTT
B20: in assay [1], the “Apical domain:HSA” value was 23 ratio. Also, the “hCD71:HSA” value in assay [2] is 22 ratio. In addition, the RLU in assay [3] worked out at 6.87e+06 RLU; in assay [4], 6.37e+06 RLU.

B21: CD71-binding FN3 domain SEQ ID NO 355 (designed binder)
chain: MLPAPKNLVVSRVTEDSARLSWTAPDAAFDSFFIGYLEPQPPGEAIHLYVPGSERSYDLTGLKPGTEYNVTIQGVKGGFPSHPLYADFTT
Turning to B21, in assay [1], the “Apical domain:HSA” value came out at 424 ratio. In assay [2], the “hCD71:HSA” value came to 257 ratio. Also, the results for the RLU in assay [3] and in assay [4] were 5.91e+06 RLU and 3.58e+06 RLU, respectively.

B22: CD71-binding FN3 domain SEQ ID NO 364 (designed binder)
chain: MLPAPNNLVVSRVTEDSARLSWTAPDAAFDSFFIGYLEPQPPGEAIHLFVPGSERSYDLTGLKPGTEYNVTIQGVKGGFPSGPLHATFTT
As to B22, the “Apical domain:HSA” value in assay [1] turned out to be 67 ratio. In assay [2], the “hCD71:HSA” value is 60 ratio. For the same molecule, the RLU was 6.5e+06 RLU in assay [3] and 5.83e+06 RLU in assay [4].

B23: CD71-binding FN3 domain SEQ ID NO 366 (designed binder)
chain: MLPAPKNLVVSRVTEDSARLSWTAPDAAFDSFFIGYLEPQPPGEAIDLWVPGSERSYDLTGLKPGTEYNVTIQGVKGGFPSNPLKAQFTT
In the case of B23, the “Apical domain:HSA” value in assay [1] was found to be 313 ratio. Also, in assay [2], the “hCD71:HSA” value worked out at 213 ratio. Also, the results for the RLU in assay [3] and in assay [4] were 3.37e+06 RLU and 2.29e+06 RLU, respectively.

B24: CD71-binding FN3 domain SEQ ID NO 354 (designed binder)
chain: MLPAPKNLVVSRVTEDSARLSWTAPDAAFDSFFIGYLEPQPPGEAIQLWVPGSERSYDLTGLKPGTEYNVTIQGVKGGFPSLPLVATFTT
As for B24, the “Apical domain:HSA” value in assay [1] was determined as 142 ratio. In assay [2], the “hCD71:HSA” value was 155 ratio. The RLU was found to be 5.25e+06 RLU in assay [3] and 5.75e+06 RLU in assay [4].

B25: CD71-binding FN3 domain SEQ ID NO 365 (designed binder)
chain: MLPAPKNLVVSRVTEDSARLSWTAPDAAFDSFFIGYLEPQPPGEAIVLWVPGSERSYDLTGLKPGTEYNVTIQGVKGGFPSHPLVAKFTT
As for B25, in assay [1], the “Apical domain:HSA” value came out at 65 ratio. The “hCD71:HSA” value in assay [2] came to 67 ratio. Also, the figures for the RLU in assay [3] and in assay [4] were 6.7e+06 RLU and 6.85e+06 RLU, respectively.

The values above are taken from patent US20260151494A1 (ARO BIOTHERAPEUTICS, published 2026).
